Results as given in ChEMBL document CHEMBL1146070, “Investigating the role of stereochemistry in the activity of anticancer acylfulvenes: synthesis, reductase-mediated bioactivation, and cellular toxicity” (J Med Chem, 2006).

Experiments:
[1] = substrate: CC1=CC2=C(C)C3(CC3)[C@@](C)(O)C(=O)C2=C1; assay: (§1) Affinity towards rat NADP-dependent AOR, leukotriene B4 12-hydroxydehydrogenase
[2] = substrate: CC1=C(CO)C2=C(C)C3(CC3)[C@@](C)(O)C(=O)C2=C1; assay: as §1
[3] = substrate: CC1=C(CO)C2=C(C)C3(CC3)[C@](C)(O)C(=O)C2=C1; assay: as §1
[4] = substrate: CC1=CC2=C(C)C3(CC3)[C@](C)(O)C(=O)C2=C1; assay: as §1

B1: Prostaglandin reductase 1 (Rattus norvegicus), P97584 (protein)
chain: MVQAKTWTLKKHFEGFPTDSNFELRTTELPPLNNGEVLLEALFLSVDPYMRVAAKKLKEGDSMMGEQVARVVESKNSAFPTGTIVVALLGWTSHSISDGNGLRKLPAEWPDKLPLSLALGTVGMPGLTAYFGLLDICGLKGGETVLVNAAAGAVGSVVGQIAKLKGCKVVGTAGSDEKVAYLKKLGFDVAFNYKTVKSLEEALRTASPDGYDCYFDNVGGEFSNTVILQMKTFGRIAICGAISQYNRTGPCPPGPSPEVIIYQQLRMEGFIVTRWQGEVRQKALTDLMNWVSEGKIRYHEYITEGFEKMPAAFMGMLKGDNLGKTIVKA
B1 was tested, and the Km [1] was 538 µM, the Km [2] was 213 µM and the Km [3] was 243 µM. It also gave a Km [4] of 465 µM.
